Data published in PMC2726291, “Sus1, Cdc31, and the Sac3 CID Region Form a Conserved Interaction Platform that Promotes Nuclear Pore Association and mRNA Export” (Molecular Cell, 2009).

B1: Sac3 residues 753–805 (domain or fragment, yeast, UniProt P46674 753-805, looked up)
chain: EANYRKDFIDTMTRELYDAFLHERLYLIYMDSRAELKRNSTLKKKFFEKWQAS
notes: Vector pGEXTEV; not shown: GST, N-terminal, cleaved
B2: Sus1 (recombinant, untagged, full length) (natural protein, yeast, UniProt Q6WNK7 1-96, looked up)
chain: MTMDTAQLKSQIQQYLVESGNYELISNELKARLLQEGWVDKVKDLTKSEMNINESTNFTQILSTVEPKALEMVSDSTRETVLKQIREFLEEIVDTQ
notes: Sus1, yeast, full length; the model holds residues 6–95; also called Sus1A; Sus1B; source: E. coli BL21(DE3) CodonPlus RIL, untagged vector pOPT, purified as a complex with Sac3 fragment and Cdc31
B3: Cdc31 (recombinant, untagged, full length) (natural protein, yeast, UniProt P06704 1-161, looked up)
chain: MSKNRSSLQSGPLNSELLEEQKQEIYEAFSLFDMNNDGFLDYHELKVAMKALGFELPKREILDLIDEYDSEGRHLMKYDDFYIVMGEKILKRDPLDEIKRAFQLFDDDHTGKISIKNLRRVAKELGETLTDEELRAMIEEFDLDGDGEINENEFIAICTDS
notes: Cdc31, yeast, full length, cloned into pET30a and called untagged; the model holds residues 9–161; source: E. coli BL21(DE3) CodonPlus RIL, coexpressed with GST-Sac3 fragments, purified as a complex
B4: GST-GANP(1162–1204) (domain or fragment, human, UniProt O60318 1162-1204, looked up)
chain: ELVLSELSQGLAVELMERVMMEFVRETCSQELKNAVETDQRVR
notes: Vector pGEXTEV; not shown: GST, N-terminal, kept
B5: GST-GANP(1162–1240) (domain or fragment, human, UniProt O60318 1162-1240, looked up)
chain: ELVLSELSQGLAVELMERVMMEFVRETCSQELKNAVETDQRVRVARCCEDVCAHLVDLFLVEEIFQTAKETLQELQCFC
notes: as for B4
B6: GST-Sac3(723–752) (domain or fragment, yeast, UniProt P46674 723-752, looked up)
chain: KQVITEQIANDLVKEVVNSSVISIVKREFS
notes: Vector pGEXTEV; source: E. coli, immobilised on glutathione Sepharose 4B resin from clarified lysate; not shown: GST, N-terminal, kept
B7: GST-Sac3(758–805) (domain or fragment, yeast, UniProt P46674 758-805, looked up)
chain: KDFIDTMTRELYDAFLHERLYLIYMDSRAELKRNSTLKKKFFEKWQAS
notes: Vector pGEXTEV; The methods say that GST-Sac3 fragments were coexpressed with Cdc31; source: E. coli, immobilised on glutathione Sepharose 4B resin from clarified lysate; not shown: GST, N-terminal, kept
B8: Sac3 (construct of the in vitro binding studies of Figure S6) (domain or fragment)
chain: KQVITEQIANDLVKEVVNSSVISIVKREFSEANYRKDFIDTMTRELYDAFLHERLYLIYMDSRAELKRNSTLKKKFFEKWQAS
modifications: Supplement text on Sus1 affinity (Figure S6): plates coated with GST-Sac3(723-805) co-complexed with full-length Cdc31; GST and the Cdc31 partner chain (P06704) omitted here

Tests used:
[1] = target: B2; assay: crystal structure; Sac3 fragment:Cdc31:Sus1 complexes, hanging drop vapor diffusion in PEG solutions at 19°C; 2.5 Å (Sac3 753–805) and 2.7 Å (Sac3 723–805); settings: both partners purified
[2] = target: B3; assay: as above; settings: both partners purified
[3] = target: T1, Sac3 residues 723–805 (Sac3^CID) (yeast, UniProt P46674 723-805); assay: as above; settings: both partners purified
T1 construct: Vector pGEXTEV; also called CID domain; not shown: GST, N-terminal, cleaved
T1 sequence (looked up): B8 chain

[4] = target: T2, 6XHis-ENY2 (human, UniProt Q9NPA8 1-101); assay: pull-down; GST or GST fusions immobilised on glutathione Sepharose 4B; purified ENY2 added in 10-fold excess, washed extensively with NB buffer (150 mM NaCl, 50 mM KOAc, 20 mM Tris, 2 mM Mg(OAc)2, 0.1% NP-40); SDS-PAGE (Figure S4); settings: both partners purified
T2 construct: ENY2, human homolog of Sus1; cDNA cloned into the NdeI and SalI sites of pET28a; also called human Sus1 homolog; DC6/ENY2; source: E. coli BL21, purified (Ni-NTA Agarose)
T2 sequence (looked up): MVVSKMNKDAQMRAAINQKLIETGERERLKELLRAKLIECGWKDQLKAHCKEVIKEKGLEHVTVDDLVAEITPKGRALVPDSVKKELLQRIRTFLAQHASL

[5] = target: T3, Sus1 (of the in vitro binding studies of Figure S6) (yeast, UniProt Q6WNK7 1-96); assay: not stated; in vitro binding studies (Figure S6)
T3 construct: Sus1, yeast
T3 sequence (looked up): B2 chain

B1
binding result [1]: binds
binding result [2]: binds

B2
stoichiometry N [3]: 2

B3
stoichiometry N [3]: 1

B4
binding result [4]: binds

B5
binding result [4]: binds

B6
binding result [4]: binds

B7
binding result [4]: binds

B8
Kd [5]: ~0.01 µM
